Laboratory results: US20080207668A1, “PHARMACEUTICAL COMPOSITIONS OF HYD[…] PREVENTION OF OVERDOSE OR ABUSE” (New River Pharmaceuticals Inc., priority 2006, published 2008)
Where a name gives a salt, the structure may show the parent alone. Residues, ends and D or L forms follow the SMILES beside them. *: point of attachment. X5 = CC(=O)Oc1ccc2c3c1O[C@H]1C(O*)=CC[C@H]4[C@@H](C2)N(C)CC[C@]314; X2 = CN1CC[C@]23c4c5ccc(O)c4O[C@H]2C(O*)=CC[C@H]3[C@H]1C5

Key:
[1] = Intranasal bioavailability of hydromorphone conjugates (plasma hydromorphone after intranasal dosing); format: in vivo, male Sprague-Dawley rats; details: rat, relative to hydromorphone control
Experimental: Oral, and intranasal bioavailability studies of hydromorphone and hydromorphone conjugates were conducted in male Sprague-Dawley rats. Doses of hydromorphone hydrochloride and hydromorphone conjugates containing equivalent amounts of hydromorphone were administered in deionized water. Oral administration was in 0.5 ml by gavage needle. Intranasal doses were administered by placing 20 microliters into the nasal flares of rats anesthetized with isoflurane. Plasma was collected by retroorbital sinus puncture under isoflurane anesthesia. hydromorphone were determined by LC/MS/MS.
Male Sprague-Dawley rats were provided water ad libitum and doses were administered by placing 0.02 ml of water containing hydromorphone conjugates or hydromorphone […] into the nasal flares. All doses contained equivalent amounts of hydromorphone base. Plasma hydromorphone concentrations were measured by ELISA (hydromorphone, 102919, Neogen, Corporation, Lexington, Ky.) and/or LC/MS. The assay is specific for hydromorphone. These examples illustrate that hydromorphone conjugates decrease the peak level (Cmax) and total absorption (AUC) of hydromorphone as compared to those produced by equimolar (hydromorphone base) doses of hydromorphone HCl when given by the intranasal route of administration.
The following Tables include Hydromorphone amino acid and peptide HCl salt conjugates that were synthesized and tested. Both oral and intranasal bioavailabilities were measured. The bold values are the “corrected values”, that were calculated based on the bioavailability of the control (HM).

[2] = Oral bioavailability of hydromorphone conjugates (plasma hydromorphone after oral gavage); details: rat, relative to hydromorphone control

SMILES | IN AUC % (corrected value based on bioavailability of control HM) [1] [%] | IN Cmax % (corrected value based on control HM) [1] [%] | Oral AUC % (corrected value based on bioavailability of control HM) [2] [%] | Oral Cmax % (corrected value based on control HM) [2] [%]
CC(C)[C@H](NC(=O)[C@@H]1CCCN1C(=O)[C@@H]1CCCN1)C(=O)OC1=CC[C@H]2[C@H]3Cc4ccc(O)c5c4[C@@]2(CCN3C)[C@H]1O5 [PPV-HM] | 71 | 101 | 24 | 55
CC(C)C[C@H](NC(=O)[C@H](CCC(=O)O)NC(=O)[C@@H](N)CCC(=O)O)C(=O)OC1=CC[C@H]2[C@H]3Cc4ccc(O)c5c4[C@@]2(CCN3C)[C@H]1O5 [EEL-HM] | 84 | 98 | 27 | 49
CC[C@H](C)[C@H](NC(=O)[C@H](CCC(=O)O)NC(=O)[C@@H](N)CCC(=O)O)C(=O)OC1=CC[C@H]2[C@H]3Cc4ccc(O)c5c4[C@@]2(CCN3C)[C@H]1O5 [EEI-HM] | 59 | 88 | 56 | 73
CC(C)[C@H](NC(=O)CNC(=O)CN)C(=O)OC1=CC[C@H]2[C@H]3Cc4ccc(O)c5c4[C@@]2(CCN3C)[C@H]1O5 [GGV-HM] | 51 | 73 | 53 | 63
CC(C)C[C@H](NC(=O)[C@H](Cc1ccccc1)NC(=O)[C@@H](N)Cc1ccccc1)C(=O)OC1=CC[C@H]2[C@H]3Cc4ccc(O)c5c4[C@@]2(CCN3C)[C@H]1O5 [FFL-HM] | 92 | 96 | 11 | 24
CC(C)C[C@H](NC(=O)[C@H](Cc1ccc(O)cc1)NC(=O)[C@@H](N)Cc1ccc(O)cc1)C(=O)OC1=CC[C@H]2[C@H]3Cc4ccc(O)c5c4[C@@]2(CCN3C)[C@H]1O5 [YYL-HM] | 74 | 75 | 12 | 30
CC(C)C[C@H](NC(=O)CNC(=O)CN)C(=O)OC1=CC[C@H]2[C@H]3Cc4ccc(O)c5c4[C@@]2(CCN3C)[C@H]1O5 [GGL-HM] | 52 | 85 | 22 | 43
CC[C@H](C)[C@H](NC(=O)[C@H](Cc1ccccc1)NC(=O)[C@H](Cc1ccccc1)NC(=O)[C@H](Cc1ccc(O)cc1)NC(=O)[C@@H](N)Cc1ccc(O)cc1)C(=O)OC1=CC[C@H]2[C@H]3Cc4ccc(OC(C)=O)c5c4[C@@]2(CCN3C)[C@H]1O5 [YYFFI-HM-OAc] (H-YYFFI-X5) | 59 | 72 | 29 | 40
CC(C)C[C@H](NC(=O)[C@H](CCCCN)NC(=O)[C@@H](N)CCCCN)C(=O)OC1=CC[C@H]2[C@H]3Cc4ccc(O)c5c4[C@@]2(CCN3C)[C@H]1O5 [KKL-HM] | 87 | 96 | 24 | 50
CC[C@H](C)[C@H](NC(=O)[C@H](Cc1ccccc1)NC(=O)[C@@H](N)Cc1ccccc1)C(=O)OC1=CC[C@H]2[C@H]3Cc4ccc(O)c5c4[C@@]2(CCN3C)[C@H]1O5 [FFI-HM] | 79 | 92 | 18 | 47
CC(C)[C@H](NC(=O)[C@H](CCCCN)NC(=O)[C@@H](N)CCCCN)C(=O)OC1=CC[C@H]2[C@H]3Cc4ccc(O)c5c4[C@@]2(CCN3C)[C@H]1O5 [KKV-HM] | 75 | 89 | 43 | 60
CC[C@H](C)[C@H](NC(=O)[C@H](Cc1ccc(O)cc1)NC(=O)[C@@H](N)Cc1ccc(O)cc1)C(=O)OC1=CC[C@H]2[C@H]3Cc4ccc(O)c5c4[C@@]2(CCN3C)[C@H]1O5 [YYI-HM] | 88 | 86 | 32 | 66
CC(C)C[C@H](NC(=O)[C@@H]1CCCN1C(=O)[C@@H]1CCCN1)C(=O)OC1=CC[C@H]2[C@H]3Cc4ccc(O)c5c4[C@@]2(CCN3C)[C@H]1O5 [PPL-HM] | 53 | 70 | 22 | 45
CN1CC[C@]23c4c5ccc(O)c4O[C@H]2C(OC(=O)[C@H](Cc2ccccc2)NC(=O)[C@H](Cc2ccccc2)NC(=O)[C@H](Cc2ccccc2)NC(=O)[C@H](CCC(=O)O)NC(=O)[C@@H](N)CCC(=O)O)=CC[C@H]3[C@H]1C5 [EEFFF-HM, Glu2-Phe3-Hydromorphone.Dihydrochloride] (H-EEFFF-X2) | 52 | 57 | 79 | 78
CC(C)[C@H](NC(=O)[C@H](Cc1ccccc1)NC(=O)[C@@H](N)Cc1ccccc1)C(=O)OC1=CC[C@H]2[C@H]3Cc4ccc(O)c5c4[C@@]2(CCN3C)[C@H]1O5 [FFV-HM] | 98 | 103 | 8 | 36
CC[C@H](C)[C@H](NC(=O)CNC(=O)CN)C(=O)OC1=CC[C@H]2[C@H]3Cc4ccc(O)c5c4[C@@]2(CCN3C)[C@H]1O5 [GGI-HM] | 24 | 66 | 17 | 32
CC(C)[C@H](NC(=O)[C@H](Cc1ccc(O)cc1)NC(=O)[C@@H](N)Cc1ccc(O)cc1)C(=O)OC1=CC[C@H]2[C@H]3Cc4ccc(O)c5c4[C@@]2(CCN3C)[C@H]1O5 [YYV-HM] | 73 | 73 | 30 | 53
CC[C@H](C)[C@H](NC(=O)[C@H](Cc1ccccc1)NC(=O)[C@H](Cc1ccccc1)NC(=O)[C@H](Cc1ccc(O)cc1)NC(=O)[C@@H](N)Cc1ccc(O)cc1)C(=O)OC1=CC[C@H]2[C@H]3Cc4ccc(O)c5c4[C@@]2(CCN3C)[C@H]1O5 [YYFFI-HM] (H-YYFFI-X2) | 4 | 7 | 40 | 52
CC[C@H](C)[C@H](NC(=O)[C@H](CCCCN)NC(=O)[C@@H](N)CCCCN)C(=O)OC1=CC[C@H]2[C@H]3Cc4ccc(O)c5c4[C@@]2(CCN3C)[C@H]1O5 [KKI-HM] | 68 | 85 | 24 | 56
CC(C)[C@H](NC(=O)[C@H](CCC(=O)O)NC(=O)[C@@H](N)CCC(=O)O)C(=O)OC1=CC[C@H]2[C@H]3Cc4ccc(O)c5c4[C@@]2(CCN3C)[C@H]1O5 [EEV-HM] | 31 | 70 | 21 | 50
CC[C@H](C)[C@H](NC(=O)[C@@H]1CCCN1C(=O)[C@@H]1CCCN1)C(=O)OC1=CC[C@H]2[C@H]3Cc4ccc(O)c5c4[C@@]2(CCN3C)[C@H]1O5 [PPI-HM] | 77 | 95 | 21 | 60
